Laboratory results as given in patent US20210139548A1 (published 2021).
*1 amine or outer side, *2 acyl side, *3 side chain or, on linkers, in order; H or OH if unused. Side-chain parts run from the residue outwards. The star is where a group is joined. C18 diacid = O=C(O)CCCCCCCCCCCCCCCCC(=O)*; γGlu = O=C(O)[C@H](CCC(=O)[*:2])N[*:1]; Isovaleryl = CC(C)CC(=O)*; AEEA = NCCOCCOCC(=O)O

Molecular target: T1, human neuropeptide Y2 receptor (human, UniProt P49146 1-381)
T1 construct: whole, on cells; also called hNPY2 receptor; hNPY2-R
T1 sequence (looked up): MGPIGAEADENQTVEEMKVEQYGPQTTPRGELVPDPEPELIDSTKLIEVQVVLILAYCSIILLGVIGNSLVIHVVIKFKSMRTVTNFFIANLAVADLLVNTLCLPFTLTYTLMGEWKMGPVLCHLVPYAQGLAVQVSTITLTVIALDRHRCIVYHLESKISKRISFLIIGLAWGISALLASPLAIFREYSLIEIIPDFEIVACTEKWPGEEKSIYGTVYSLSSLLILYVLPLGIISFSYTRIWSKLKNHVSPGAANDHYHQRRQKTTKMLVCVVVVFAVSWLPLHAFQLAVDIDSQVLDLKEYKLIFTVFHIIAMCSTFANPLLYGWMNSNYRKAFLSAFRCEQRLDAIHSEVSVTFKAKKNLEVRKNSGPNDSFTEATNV
Assay: radioligand competition (125I-PYY(1-36)), hNPY2R membranes
How it was run: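 Commercial human Y2 receptor membranes (0.5 μg protein/well) were incubated with peptide for 2 h at room temperature in 50 mM HEPES, 5 mM MgCl₂, 1 mM CaCl₂, pH 7.4, with 0.2% ovalbumin. Bound radioligand was separated on PEI-soaked GF/C filters and counted by scintillation, and IC₅₀ came from nonlinear sigmoidal regression.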

B1: Compound 121 (peptide)
peptide: Isovaleryl-APAK([AEEA-AEEA-γGlu-C18 diacid])PEADASPEELQRYYVSLRHYYNWLTRQRY-NH2
SMILES: CC(C)CC(=O)N[C@@H](C)C(=O)N1CCC[C@H]1C(=O)N[C@@H](C)C(=O)N[C@@H](CCCCNC(=O)COCCOCCNC(=O)COCCOCCNC(=O)CC[C@H](NC(=O)CCCCCCCCCCCCCCCCC(=O)O)C(=O)O)C(=O)N1CCC[C@H]1C(=O)N[C@@H](CCC(=O)O)C(=O)N[C@@H](C)C(=O)N[C@@H](CC(=O)O)C(=O)N[C@@H](C)C(=O)N[C@@H](CO)C(=O)N1CCC[C@H]1C(=O)N[C@@H](CCC(=O)O)C(=O)N[C@@H](CCC(=O)O)C(=O)N[C@@H](CC(C)C)C(=O)N[C@@H](CCC(N)=O)C(=O)N[C@@H](CCCNC(=N)N)C(=O)N[C@@H](Cc1ccc(O)cc1)C(=O)N[C@@H](Cc1ccc(O)cc1)C(=O)N[C@H](C(=O)N[C@@H](CO)C(=O)N[C@@H](CC(C)C)C(=O)N[C@@H](CCCNC(=N)N)C(=O)N[C@@H](Cc1c[nH]cn1)C(=O)N[C@@H](Cc1ccc(O)cc1)C(=O)N[C@@H](Cc1ccc(O)cc1)C(=O)N[C@@H](CC(N)=O)C(=O)N[C@@H](Cc1c[nH]c2ccccc12)C(=O)N[C@@H](CC(C)C)C(=O)N[C@H](C(=O)N[C@@H](CCCNC(=N)N)C(=O)N[C@@H](CCC(N)=O)C(=O)N[C@@H](CCCNC(=N)N)C(=O)N[C@@H](Cc1ccc(O)cc1)C(N)=O)[C@@H](C)O)C(C)C
- Ki: 0.61 nM

B2: Compound 122 (peptide)
peptide: Isovaleryl-APEK([AEEA-AEEA-γGlu-C18 diacid])PEEDAAPEELQRYYVSLRHYYNWLTRQRY-NH2
SMILES: CC(C)CC(=O)N[C@@H](C)C(=O)N1CCC[C@H]1C(=O)N[C@@H](CCC(=O)O)C(=O)N[C@@H](CCCCNC(=O)COCCOCCNC(=O)COCCOCCNC(=O)CC[C@H](NC(=O)CCCCCCCCCCCCCCCCC(=O)O)C(=O)O)C(=O)N1CCC[C@H]1C(=O)N[C@@H](CCC(=O)O)C(=O)N[C@@H](CCC(=O)O)C(=O)N[C@@H](CC(=O)O)C(=O)N[C@@H](C)C(=O)N[C@@H](C)C(=O)N1CCC[C@H]1C(=O)N[C@@H](CCC(=O)O)C(=O)N[C@@H](CCC(=O)O)C(=O)N[C@@H](CC(C)C)C(=O)N[C@@H](CCC(N)=O)C(=O)N[C@@H](CCCNC(=N)N)C(=O)N[C@@H](Cc1ccc(O)cc1)C(=O)N[C@@H](Cc1ccc(O)cc1)C(=O)N[C@H](C(=O)N[C@@H](CO)C(=O)N[C@@H](CC(C)C)C(=O)N[C@@H](CCCNC(=N)N)C(=O)N[C@@H](Cc1c[nH]cn1)C(=O)N[C@@H](Cc1ccc(O)cc1)C(=O)N[C@@H](Cc1ccc(O)cc1)C(=O)N[C@@H](CC(N)=O)C(=O)N[C@@H](Cc1c[nH]c2ccccc12)C(=O)N[C@@H](CC(C)C)C(=O)N[C@H](C(=O)N[C@@H](CCCNC(=N)N)C(=O)N[C@@H](CCC(N)=O)C(=O)N[C@@H](CCCNC(=N)N)C(=O)N[C@@H](Cc1ccc(O)cc1)C(N)=O)[C@@H](C)O)C(C)C
- Ki: 1.84 nM

B3: Compound 124 (peptide)
peptide: Isovaleryl-APEK([AEEA-AEEA-γGlu-C18 diacid])PEEDAAPEEIQRYYVSLRHYYNWLTRQRY-NH2
SMILES: CC[C@H](C)[C@H](NC(=O)[C@H](CCC(=O)O)NC(=O)[C@H](CCC(=O)O)NC(=O)[C@@H]1CCCN1C(=O)[C@H](C)NC(=O)[C@H](C)NC(=O)[C@H](CC(=O)O)NC(=O)[C@H](CCC(=O)O)NC(=O)[C@H](CCC(=O)O)NC(=O)[C@@H]1CCCN1C(=O)[C@H](CCCCNC(=O)COCCOCCNC(=O)COCCOCCNC(=O)CC[C@H](NC(=O)CCCCCCCCCCCCCCCCC(=O)O)C(=O)O)NC(=O)[C@H](CCC(=O)O)NC(=O)[C@@H]1CCCN1C(=O)[C@H](C)NC(=O)CC(C)C)C(=O)N[C@@H](CCC(N)=O)C(=O)N[C@@H](CCCNC(=N)N)C(=O)N[C@@H](Cc1ccc(O)cc1)C(=O)N[C@@H](Cc1ccc(O)cc1)C(=O)N[C@H](C(=O)N[C@@H](CO)C(=O)N[C@@H](CC(C)C)C(=O)N[C@@H](CCCNC(=N)N)C(=O)N[C@@H](Cc1c[nH]cn1)C(=O)N[C@@H](Cc1ccc(O)cc1)C(=O)N[C@@H](Cc1ccc(O)cc1)C(=O)N[C@@H](CC(N)=O)C(=O)N[C@@H](Cc1c[nH]c2ccccc12)C(=O)N[C@@H](CC(C)C)C(=O)N[C@H](C(=O)N[C@@H](CCCNC(=N)N)C(=O)N[C@@H](CCC(N)=O)C(=O)N[C@@H](CCCNC(=N)N)C(=O)N[C@@H](Cc1ccc(O)cc1)C(N)=O)[C@@H](C)O)C(C)C
- Ki: 0.5 nM

B4: Compound 126 (peptide)
peptide: Isovaleryl-APAK([AEEA-AEEA-γGlu-C18 diacid])PEEDSSPEELQRYYVSLRHYYNWLTRQRY-NH2
SMILES: CC(C)CC(=O)N[C@@H](C)C(=O)N1CCC[C@H]1C(=O)N[C@@H](C)C(=O)N[C@@H](CCCCNC(=O)COCCOCCNC(=O)COCCOCCNC(=O)CC[C@H](NC(=O)CCCCCCCCCCCCCCCCC(=O)O)C(=O)O)C(=O)N1CCC[C@H]1C(=O)N[C@@H](CCC(=O)O)C(=O)N[C@@H](CCC(=O)O)C(=O)N[C@@H](CC(=O)O)C(=O)N[C@@H](CO)C(=O)N[C@@H](CO)C(=O)N1CCC[C@H]1C(=O)N[C@@H](CCC(=O)O)C(=O)N[C@@H](CCC(=O)O)C(=O)N[C@@H](CC(C)C)C(=O)N[C@@H](CCC(N)=O)C(=O)N[C@@H](CCCNC(=N)N)C(=O)N[C@@H](Cc1ccc(O)cc1)C(=O)N[C@@H](Cc1ccc(O)cc1)C(=O)N[C@H](C(=O)N[C@@H](CO)C(=O)N[C@@H](CC(C)C)C(=O)N[C@@H](CCCNC(=N)N)C(=O)N[C@@H](Cc1c[nH]cn1)C(=O)N[C@@H](Cc1ccc(O)cc1)C(=O)N[C@@H](Cc1ccc(O)cc1)C(=O)N[C@@H](CC(N)=O)C(=O)N[C@@H](Cc1c[nH]c2ccccc12)C(=O)N[C@@H](CC(C)C)C(=O)N[C@H](C(=O)N[C@@H](CCCNC(=N)N)C(=O)N[C@@H](CCC(N)=O)C(=O)N[C@@H](CCCNC(=N)N)C(=O)N[C@@H](Cc1ccc(O)cc1)C(N)=O)[C@@H](C)O)C(C)C
- Ki: 1.18 nM

B5: Compound 130 (peptide)
peptide: Isovaleryl-APEK([AEEA-AEEA-γGlu-C18 diacid])PEEDTSAEELQRYYVSLRHYYNWLTRQRY-NH2
SMILES: CC(C)CC(=O)N[C@@H](C)C(=O)N1CCC[C@H]1C(=O)N[C@@H](CCC(=O)O)C(=O)N[C@@H](CCCCNC(=O)COCCOCCNC(=O)COCCOCCNC(=O)CC[C@H](NC(=O)CCCCCCCCCCCCCCCCC(=O)O)C(=O)O)C(=O)N1CCC[C@H]1C(=O)N[C@@H](CCC(=O)O)C(=O)N[C@@H](CCC(=O)O)C(=O)N[C@@H](CC(=O)O)C(=O)N[C@H](C(=O)N[C@@H](CO)C(=O)N[C@@H](C)C(=O)N[C@@H](CCC(=O)O)C(=O)N[C@@H](CCC(=O)O)C(=O)N[C@@H](CC(C)C)C(=O)N[C@@H](CCC(N)=O)C(=O)N[C@@H](CCCNC(=N)N)C(=O)N[C@@H](Cc1ccc(O)cc1)C(=O)N[C@@H](Cc1ccc(O)cc1)C(=O)N[C@H](C(=O)N[C@@H](CO)C(=O)N[C@@H](CC(C)C)C(=O)N[C@@H](CCCNC(=N)N)C(=O)N[C@@H](Cc1c[nH]cn1)C(=O)N[C@@H](Cc1ccc(O)cc1)C(=O)N[C@@H](Cc1ccc(O)cc1)C(=O)N[C@@H](CC(N)=O)C(=O)N[C@@H](Cc1c[nH]c2ccccc12)C(=O)N[C@@H](CC(C)C)C(=O)N[C@H](C(=O)N[C@@H](CCCNC(=N)N)C(=O)N[C@@H](CCC(N)=O)C(=O)N[C@@H](CCCNC(=N)N)C(=O)N[C@@H](Cc1ccc(O)cc1)C(N)=O)[C@@H](C)O)C(C)C)[C@@H](C)O
- Ki: 11.1 nM
